Our source for the IC50 and HLA molecules detectable after 2 hr values is US20070025968A1, “Methods for selecting and producing T cell peptide epitopes and vaccines incorporating said selected epitopes” (priority 1996, published 2007).

What all share (details): remark: other sources report otherwise
Experiment [1] concerns the target HLA-A*0201 on mild-acid treated JY cells (human). Description: competition vs FL-reference peptide, JY cells.
Experiment [2] has the same target. The experiment is described as follows: competition vs FL-reference peptide, JY cells, 26°C 24 hr.
Experiment [3] shares this target. Description: competition vs FL-reference peptide, JY cells, 4°C 24 hr.
Experiment [4] has the same target. The experiment is described as follows: competition vs FL-reference peptide, JY cells, 26°C 3 hr.
Experiment [5] shares this target.

Bounds are passed on as bounds.

B1: HPV16 E7 86-93 (peptide)
peptide: TLGIVCPI
B1: the IC50 – broadly, the concentration that inhibits the measured activity by half – in experiment [1] was 700 nM; in experiment [2] it was 3100 nM; in experiment [3], 700 nM; in experiment [4] it was 6500 nM.

B2: hepatitis B nucleocapsid peptide … (peptide)
peptide: FLPSDFFPSV
B2 gave an IC50 in experiment [1] of 400 nM.

B3: HCVcore-132 (peptide)
peptide: DLMGYIPLV
The molecule B3 yielded an IC50 in experiment [1] of 5000 nM.

B4: HBV surface 335 (peptide)
peptide: WLSLLVPFV
For B4, the IC50 in experiment [1] was 1000 nM.

B5: HBV Pol 594-602 (peptide)
peptide: PLEEELPRL
B5: the HLA molecules detectable after 2 hr at 37°C (NS = non stable) in experiment [5] is less than 10%.
